Source: article PMC6216019
Read-outs that look alike come from different tables or passages of the source.

What was measured:
AcrB_(P223G) (E. coli) = AcrB_(P223G) (E. coli) (UniProt P31224); assay: native gel or EMSA
[1] = target: AcrB_(P223G/V225C/A777C) (E. coli) (UniProt P31224); assay: cross-linking
[2] = target: AcrB_(P223G)-CFP (E. coli) (UniProt P31224); assay: FRET or BRET
[3] = target: AcrB_(P223G)-CFP (E. coli) (UniProt P31224); assay: FRET or BRET; remark: listed apart in the source
[4] = target: AcrB_(V225C/A777C) (E. coli) (UniProt P31224); assay: cross-linking
AcrB-CFP (E. coli) [5] = target: AcrB-CFP (E. coli) (UniProt P31224); assay: FRET or BRET
AcrB-CFP (E. coli) [6] = target: AcrB-CFP (E. coli) (UniProt P31224); assay: FRET or BRET; remark: listed apart in the source

AcrB_(P223G) (from UniProt P31224 1-1049) (natural protein)
stoichiometry N (AcrB_(P223G) (E. coli)): 3

AcrB_(P223G/V225C/A777C) (from UniProt P31224 1-1049) (natural protein)
stoichiometry N [1]: 3

AcrB_(P223G)-YPet (from UniProt P31224 1-1049) (natural protein)
FRET efficiency [2]: 26%
FRET efficiency [3]: 22%

AcrB_(V225C/A777C) (from UniProt P31224 1-1049) (natural protein)
stoichiometry N [4]: 3

AcrB-YPet (from UniProt P31224 1-1049) (natural protein)
FRET efficiency (AcrB-CFP (E. coli) [5]): 35%
FRET efficiency (AcrB-CFP (E. coli) [6]): 50%
